Source: patent publication US20250388664A1

How the values were obtained:
Aβ1-40 monomer = Aβ1-40 monomer (UniProt P05067); assay: inhibition ELISA: antibody at a fixed concentration pre-incubated with titrated Aβ1-40 monomer in solution, then on an AβpE3-40 coat; the x axis is the Aβ1-40 concentration
AβpE11-40 monomer = AβpE11-40 monomer (UniProt P05067); assay: inhibition ELISA: antibody at a fixed concentration pre-incubated with titrated AβpE11-40 monomer in solution, then on an AβpE3-40 coat; the x axis is the AβpE11-40 concentration
Sequence of AβpE11-40 monomer (P05067 682-711): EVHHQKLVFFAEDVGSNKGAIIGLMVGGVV

Sequence of Aβ1-40 monomer (P05067 672-711): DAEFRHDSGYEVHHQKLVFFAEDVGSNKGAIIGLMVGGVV

IC50 (read off the curve) (Aβ1-40 monomer): 20 nM | IC50 (read off the curve) (AβpE11-40 monomer): 20 nM
Substance: 4G8 (antibody)
